{"source": "patent US20230160883A1", "key": {"[1]": {"target": "TZSV N protein (recombinant, expressed from pET30a-TZSV in E. coli BL21 (DE3)) (tomato zonate spot virus)", "test": "indirect ELISA, negative of the row of FL484-26"}, "[2]": {"target": "TZSV N protein (recombinant, expressed from pET30a-TZSV in E. coli BL21 (DE3)) (tomato zonate spot virus)", "test": "indirect ELISA, negative of the row of FL484-21"}, "[3]": {"target": "TZSV N protein (recombinant, expressed from pET30a-TZSV in E. coli BL21 (DE3)) (tomato zonate spot virus)", "test": "indirect ELISA, negative of the row of FL484-35"}, "[4]": {"target": "TZSV N protein (recombinant, expressed from pET30a-TZSV in E. coli BL21 (DE3)) (tomato zonate spot virus)", "test": "indirect ELISA, negative of the row of FL484-16"}, "[5]": {"target": "TZSV N protein (recombinant, expressed from pET30a-TZSV in E. coli BL21 (DE3)) (tomato zonate spot virus)", "test": "indirect ELISA, negative of the row of FL484-14"}, "[6]": {"target": "TZSV N protein (recombinant, expressed from pET30a-TZSV in E. coli BL21 (DE3)) (tomato zonate spot virus)", "test": "indirect ELISA, negative of the row of FL484-9"}, "[7]": {"target": "TZSV N protein (recombinant, expressed from pET30a-TZSV in E. coli BL21 (DE3)) (tomato zonate spot virus)", "test": "indirect ELISA, negative of the row of FL484-19"}, "[8]": {"target": "TZSV N protein (recombinant, expressed from pET30a-TZSV in E. coli BL21 (DE3)) (tomato zonate spot virus)", "test": "indirect ELISA, negative of the row of FL484-22"}, "[9]": {"target": "TZSV N protein (recombinant, expressed from pET30a-TZSV in E. coli BL21 (DE3)) (tomato zonate spot virus)", "test": "indirect ELISA, negative of the row of FL484-29"}, "[10]": {"target": "TZSV N protein (recombinant, expressed from pET30a-TZSV in E. coli BL21 (DE3)) (tomato zonate spot virus)", "test": "indirect ELISA, negative of the row of FL484-20"}, "[11]": {"target": "TZSV N protein (recombinant, expressed from pET30a-TZSV in E. coli BL21 (DE3)) (tomato zonate spot virus)", "test": "indirect ELISA, negative of the row of FL484-25"}, "[12]": {"target": "TZSV N protein (recombinant, expressed from pET30a-TZSV in E. coli BL21 (DE3)) (tomato zonate spot virus)", "test": "indirect ELISA, negative of the row of FL484-2"}, "[13]": {"target": "TZSV N protein (recombinant, expressed from pET30a-TZSV in E. coli BL21 (DE3)) (tomato zonate spot virus)", "test": "indirect ELISA, negative of the row of FL484-4"}, "[14]": {"target": "TZSV N protein (recombinant, expressed from pET30a-TZSV in E. coli BL21 (DE3)) (tomato zonate spot virus)", "test": "indirect ELISA, negative of the row of FL484-31"}, "[15]": {"target": "TZSV N protein (recombinant, expressed from pET30a-TZSV in E. coli BL21 (DE3)) (tomato zonate spot virus)", "test": "indirect ELISA, negative of the row of FL484-5"}, "[16]": {"target": "TZSV N protein (recombinant, expressed from pET30a-TZSV in E. coli BL21 (DE3)) (tomato zonate spot virus)", "test": "indirect ELISA, negative of the row of FL484-23"}, "[17]": {"target": "TZSV N protein (recombinant, expressed from pET30a-TZSV in E. coli BL21 (DE3)) (tomato zonate spot virus)", "test": "indirect ELISA, negative of the row of FL484-15"}, "[18]": {"target": "TZSV N protein (recombinant, expressed from pET30a-TZSV in E. coli BL21 (DE3)) (tomato zonate spot virus)", "test": "indirect ELISA, negative of the row of FL484-6"}, "[19]": {"target": "TZSV N protein (recombinant, expressed from pET30a-TZSV in E. coli BL21 (DE3)) (tomato zonate spot virus)", "test": "indirect ELISA, negative of the row of FL484-27"}, "[20]": {"target": "TZSV N protein (recombinant, expressed from pET30a-TZSV in E. coli BL21 (DE3)) (tomato zonate spot virus)", "test": "indirect ELISA, negative of the row of FL484-28"}, "[21]": {"target": "TZSV N protein (recombinant, expressed from pET30a-TZSV in E. coli BL21 (DE3)) (tomato zonate spot virus)", "test": "indirect ELISA, negative of the row of FL484-30"}, "[22]": {"target": "TZSV N protein (recombinant, expressed from pET30a-TZSV in E. coli BL21 (DE3)) (tomato zonate spot virus)", "test": "indirect ELISA, negative of the row of FL484-13"}, "[23]": {"target": "TZSV N protein (recombinant, expressed from pET30a-TZSV in E. coli BL21 (DE3)) (tomato zonate spot virus)", "test": "indirect ELISA, negative of the row of FL484-10"}, "[24]": {"target": "TZSV N protein (recombinant, expressed from pET30a-TZSV in E. coli BL21 (DE3)) (tomato zonate spot virus)", "test": "indirect ELISA, negative control of the row of M210046"}, "[25]": {"target": "TZSV N protein (recombinant, expressed from pET30a-TZSV in E. coli BL21 (DE3)) (tomato zonate spot virus)", "test": "indirect ELISA, negative of the row of FL484-24"}, "[26]": {"target": "TZSV N protein (recombinant, expressed from pET30a-TZSV in E. coli BL21 (DE3)) (tomato zonate spot virus)", "test": "indirect ELISA, negative of the row of FL484-34"}, "[27]": {"target": "TZSV N protein (recombinant, expressed from pET30a-TZSV in E. coli BL21 (DE3)) (tomato zonate spot virus)", "test": "indirect ELISA, negative of the row of FL484-32"}, "[28]": {"target": "TZSV N protein (recombinant, expressed from pET30a-TZSV in E. coli BL21 (DE3)) (tomato zonate spot virus)", "test": "indirect ELISA, negative of the row of FL484-3"}, "[29]": {"target": "TZSV N protein (recombinant, expressed from pET30a-TZSV in E. coli BL21 (DE3)) (tomato zonate spot virus)", "test": "indirect ELISA, negative control of the row of M210045"}, "[30]": {"target": "TZSV N protein (recombinant, expressed from pET30a-TZSV in E. coli BL21 (DE3)) (tomato zonate spot virus)", "test": "indirect ELISA, negative control of the row of M210047"}, "[31]": {"target": "TZSV N protein (recombinant, expressed from pET30a-TZSV in E. coli BL21 (DE3)) (tomato zonate spot virus)", "test": "indirect ELISA, negative of the row of FL484-11"}, "[32]": {"target": "TZSV N protein (recombinant, expressed from pET30a-TZSV in E. coli BL21 (DE3)) (tomato zonate spot virus)", "test": "indirect ELISA, negative of the row of FL484-18"}, "[33]": {"target": "TZSV N protein (recombinant, expressed from pET30a-TZSV in E. coli BL21 (DE3)) (tomato zonate spot virus)", "test": "indirect ELISA, negative of the row of FL484-7"}, "[34]": {"target": "TZSV N protein (recombinant, expressed from pET30a-TZSV in E. coli BL21 (DE3)) (tomato zonate spot virus)", "test": "indirect ELISA, negative of the row of FL484-1"}, "[35]": {"target": "TZSV N protein (recombinant, expressed from pET30a-TZSV in E. coli BL21 (DE3)) (tomato zonate spot virus)", "test": "indirect ELISA, negative of the row of FL484-33"}, "[36]": {"target": "TZSV N protein (recombinant, expressed from pET30a-TZSV in E. coli BL21 (DE3)) (tomato zonate spot virus)", "test": "indirect ELISA, negative control of the row of M210048"}, "[37]": {"target": "TZSV N protein (recombinant, expressed from pET30a-TZSV in E. coli BL21 (DE3)) (tomato zonate spot virus)", "test": "indirect ELISA, negative of the row of FL484-12"}, "[38]": {"target": "TZSV N protein (recombinant, expressed from pET30a-TZSV in E. coli BL21 (DE3)) (tomato zonate spot virus)", "test": "indirect ELISA, negative of the row of FL484-8"}, "[39]": {"target": "TZSV N protein (recombinant, expressed from pET30a-TZSV in E. coli BL21 (DE3)) (tomato zonate spot virus)", "test": "indirect ELISA, negative of the row of FL484-17"}}, "data": [{"substance": "negative control (mouse serum before immunization)", "values": [{"measurement": "OD450", "setting": "[1]", "result": 0.161, "unit": "OD"}, {"measurement": "OD450", "setting": "[2]", "result": 0.18, "unit": "OD"}, {"measurement": "OD450", "setting": "[3]", "result": 0.19, "unit": "OD"}, {"measurement": "OD450", "setting": "[4]", "result": 0.209, "unit": "OD"}, {"measurement": "OD450", "setting": "[5]", "result": 0.19, "unit": "OD"}, {"measurement": "OD450", "setting": "[6]", "result": 0.171, "unit": "OD"}, {"measurement": "OD450", "setting": "[7]", "result": 0.164, "unit": "OD"}, {"measurement": "OD450", "setting": "[8]", "result": 0.163, "unit": "OD"}, {"measurement": "OD450", "setting": "[9]", "result": 0.215, "unit": "OD"}, {"measurement": "OD450", "setting": "[10]", "result": 0.236, "unit": "OD"}, {"measurement": "OD450", "setting": "[11]", "result": 0.234, "unit": "OD"}, {"measurement": "OD450", "setting": "[12]", "result": 0.208, "unit": "OD"}, {"measurement": "OD450", "setting": "[13]", "result": 0.23, "unit": "OD"}, {"measurement": "OD450", "setting": "[14]", "result": 0.172, "unit": "OD"}, {"measurement": "OD450", "setting": "[15]", "result": 0.237, "unit": "OD"}, {"measurement": "OD450", "setting": "[16]", "result": 0.232, "unit": "OD"}, {"measurement": "OD450", "setting": "[17]", "result": 0.187, "unit": "OD"}, {"measurement": "OD450", "setting": "[18]", "result": 0.24, "unit": "OD"}, {"measurement": "OD450", "setting": "[19]", "result": 0.197, "unit": "OD"}, {"measurement": "OD450", "setting": "[20]", "result": 0.229, "unit": "OD"}, {"measurement": "OD450", "setting": "[21]", "result": 0.265, "unit": "OD"}, {"measurement": "OD450", "setting": "[22]", "result": 0.155, "unit": "OD"}, {"measurement": "OD450", "setting": "[23]", "result": 0.158, "unit": "OD"}, {"measurement": "OD450", "setting": "[24]", "result": 0.146, "unit": "OD"}, {"measurement": "OD450", "setting": "[25]", "result": 0.203, "unit": "OD"}, {"measurement": "OD450", "setting": "[26]", "result": 0.193, "unit": "OD"}, {"measurement": "OD450", "setting": "[27]", "result": 0.194, "unit": "OD"}, {"measurement": "OD450", "setting": "[28]", "result": 0.14, "unit": "OD"}, {"measurement": "OD450", "setting": "[29]", "result": 0.137, "unit": "OD"}, {"measurement": "OD450", "setting": "[30]", "result": 0.137, "unit": "OD"}, {"measurement": "OD450", "setting": "[31]", "result": 0.052, "unit": "OD"}, {"measurement": "OD450", "setting": "[32]", "result": 0.179, "unit": "OD"}, {"measurement": "OD450", "setting": "[33]", "result": 0.24, "unit": "OD"}, {"measurement": "OD450", "setting": "[34]", "result": 0.169, "unit": "OD"}, {"measurement": "OD450", "setting": "[35]", "result": 0.221, "unit": "OD"}, {"measurement": "OD450", "setting": "[36]", "result": 0.125, "unit": "OD"}, {"measurement": "OD450", "setting": "[37]", "result": 0.157, "unit": "OD"}, {"measurement": "OD450", "setting": "[38]", "result": 0.196, "unit": "OD"}, {"measurement": "OD450", "setting": "[39]", "result": 0.186, "unit": "OD"}]}]}
